Source: patent US20230310712A1, “IMPLANTABLE CELL CHAMBER DEVICE AND USES THEREOF” (Takeda Pharmaceutical Company Limited, priority 2020, published 2023)

Assays:
human TNFα = human TNFα (Homo sapiens, UniProt P01375); test: Neutralization of human TNFα activity in L-929 cells (CCK-8 viability); assay type: cell-based; settings: antibody secreted by ARPE-19 cells in culture medium, human TNFα 1 ng/mL
Method: Adalimumab is an anti-TNFα antibody. To assay for adalimumab activity in the cell culture medium of adalimumab/ARPE-19 cells, L-929 cells were seeded into a 96 well cell culture plate at the density of 5,000 cells/well in DMEM supplemented with 10% FBS. After 20-hour incubation, the cells were sensitized with Actinomycin D (2 μg/mL) for two hours. Then the cells were incubated with culture medium comprising antibodies secreted by the ARPE-19 cells in the presence of human TNFα (1 ng/mL). After another 20-hour incubation the cells were evaluated for cell viability by a CCK-8 assay to test for neutralization of human TNFα activity.

[1] = Plasma concentration of adalimumab or ustekinumab in implanted Nude mice (human IgG Fc ELISA); assay type: in vivo, mouse; settings: for day plateau was reached: nPET-PBT/PET/nPU cell chamber device; for average plasma concentration plateau: nPET-PBT/PET/nPU cell chamber device with antibody-expressing ARPE19 cells, subcutaneous
Method: To assess the ability to deliver biologics into the blood flow and the applicability of the devices to other biologics, secretion of adalimumab or ustekinumab from the nPET-PBT/PET/nPU cell chamber device described in Example 10 was assessed in vivo. The nPET-PBT/PET/nPU cell chamber device was seeded with ARPE19 cells stably expressing adalimumab or ustekinumab (see also Example 8) and subcutaneously implanted in Nude mice. Mice were assessed by blood collection over the course of >100 days to measure the plasma concentration of each antibody over time. Human IgG concentration in plasma was tested by an ELISA assay which detected the human IgG Fc region. […] (Day 1-Day 60: N=5, Day 61-Day 81: N=4, Day 82-92: N=3, Day 93-Day 108: N=2). Similarly, the average ustekinumab plasma concentration reached a plateau of approximately 60-110 μg/mL around Day 20 and maintained a steady-state over 80 days (N=5).

[2] = system: vedolizumab/Luc-ARPE19 cells; test: Cell growth and vedolizumab secretion on tacrolimus-loaded nPET-PBT; assay type: cell-based, human; settings: 200,000 cells/condition, three days, fluorescence imaging
Method: Cells were grown on tacrolimus-loaded nPET-PBT discs over three days, after which the surfaces of the nPET-PBT material were visually inspected by fluorescence imaging. […] Cells were further assessed three weeks post-seeding.

[3] = HPLC analysis of tacrolimus solvent-extracted from electrospun nPET-PBT; assay type: physicochemical; settings: HPLC after solvent extraction
Method: To reduce inflammation due to implantation trauma, the cell scaffold device can be loaded with tacrolimus (FK506). To assess cell seeding and biomolecule secretion on tacrolimus-treated materials, electrospun nPET-PBT was loaded with tacrolimus by dissolving 0% tacrolimus, 2% tacrolimus, or 4% tacrolimus to the polymer solution prior to electrospinning.
Incorporation of tacrolimus into nPET-PBT was assessed by solvent extracting the tacrolimus from the electrospun materials. The solvent extracted solution was then analyzed by high performance liquid chromatography (HPLC).

human TNFα, sequence (P01375 77-233 limits assumed): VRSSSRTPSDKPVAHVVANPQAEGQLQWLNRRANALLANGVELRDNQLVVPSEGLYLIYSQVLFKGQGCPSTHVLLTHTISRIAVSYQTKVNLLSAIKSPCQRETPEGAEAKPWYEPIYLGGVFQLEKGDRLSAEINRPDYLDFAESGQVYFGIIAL

Row | drug degradation following loading onto electrospun nPET-PBT [3] | Molecule | TNFα neutralizing activity (human TNFα) | day plateau was reached [1] [days] | average plasma concentration plateau [1] [µg/mL] | effect on cell proliferation or growth [2]
1 | – | adalimumab | retained TNFα neutralizing activity | ~25 | 50 to 100 | –
2 | – | ustekinumab: anti-IL-12/IL-23 antibody | – | ~20 | 60 to 110 | –
3 | no drug degradation | C=CC[C@@H]1/C=C(\C)C[C@H](C)C[C@H](OC)[C@H]2O[C@@](O)(C(=O)C(=O)N3CCCC[C@H]3C(=O)O[C@H](/C(C)=C/[C@@H]3CC[C@@H](O)[C@H](OC)C3)[C@H](C)[C@@H](O)CC1=O)[C@H](C)C[C@@H]2OC [tacrolimus] | – | – | – | no detectable effect on cell proliferation or growth
